Measurements reported in patent US20240141048A1 (DYNAMICURE BIOTECHNOLOGY, published 2024).
Positions count from the first letter of the chain named.

T1: mouse VISTA full length on Jurkat cells (mouse, UniProt Q9D659 33-308)
T1 construct: whole, on cells; also called Jurkat-mVISTA
T1 sequence (looked up): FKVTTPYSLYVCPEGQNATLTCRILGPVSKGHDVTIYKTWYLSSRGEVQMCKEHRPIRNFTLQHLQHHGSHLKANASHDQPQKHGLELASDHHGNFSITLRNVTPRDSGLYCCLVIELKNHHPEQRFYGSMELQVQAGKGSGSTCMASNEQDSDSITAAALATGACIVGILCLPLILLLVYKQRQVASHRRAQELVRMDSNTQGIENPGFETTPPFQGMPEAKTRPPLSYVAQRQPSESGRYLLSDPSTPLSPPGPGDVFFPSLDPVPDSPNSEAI

T2: His-tagged human VISTA extracellular domain protein (in house) (human, UniProt Q9H7M9 33-194)
T2 construct: also called human VISTA ECD; hVISTA; not shown: His tag
T2 sequence: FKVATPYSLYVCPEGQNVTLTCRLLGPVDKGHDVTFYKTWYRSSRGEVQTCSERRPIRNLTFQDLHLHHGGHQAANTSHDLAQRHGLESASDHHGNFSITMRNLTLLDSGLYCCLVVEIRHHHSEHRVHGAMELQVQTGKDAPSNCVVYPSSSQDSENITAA

T3: human VISTA full length on Jurkat cells (human, UniProt Q9H7M9 33-311)
T3 construct: also called Jurkat-hVISTA
T3 sequence: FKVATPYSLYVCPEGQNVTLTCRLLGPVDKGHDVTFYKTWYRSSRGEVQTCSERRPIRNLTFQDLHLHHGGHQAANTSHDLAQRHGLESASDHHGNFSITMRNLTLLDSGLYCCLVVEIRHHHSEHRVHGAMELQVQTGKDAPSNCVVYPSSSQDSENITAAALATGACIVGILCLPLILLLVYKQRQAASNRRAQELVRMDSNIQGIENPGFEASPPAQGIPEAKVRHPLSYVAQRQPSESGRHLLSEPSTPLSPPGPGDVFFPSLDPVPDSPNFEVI

T4: His-tagged mouse VISTA extracellular domain protein (in house) (mouse, UniProt Q9D659 33-191)
T4 construct: extracellular domain; also called mouse VISTA ECD; mVISTA; not shown: His tag
T4 sequence (looked up): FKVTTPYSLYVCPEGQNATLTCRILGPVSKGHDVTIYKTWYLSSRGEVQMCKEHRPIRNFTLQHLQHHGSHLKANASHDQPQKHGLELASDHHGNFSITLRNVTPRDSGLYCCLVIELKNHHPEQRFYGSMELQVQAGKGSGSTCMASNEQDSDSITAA

B1: anti-VISTA antibody 9F9 (antibody, V domains shown)
VH: QVQFQQSGAELARPGASVKLSCKASGYTFTGYWMQWVKQRPGQGLEWIGAIYPGDGDTRYSQKFKGKVTLTADKSSSTAYMQLSSLASEDSAVYYCARRDYGAWFAYWGQGTLVTVSA
VL: DIKVTQSPSSMYASLGERVTITCKASQDINSYLSWFQQKPGKSPKTLIYRANRLVDGVPSRFSGSGSGQDYSLTISSLDYEDMGIYYCLQYDEFPYTFGGGTKLEIK
notes: Mouse monoclonal
B2: anti-VISTA antibody 17E9 (antibody, IgG1, V domains shown)
VH: QVQLQQSGAELMKPGASVKISCTATGYTFSSCWIEWVKQRPGHGLEWLGEILPGSDYTNYNEKFKDKATFTADTSSDTAYMQLSSLTSEDSAVYYCARRPPGWYFDVWGAGTAVTVSS
VL: DIVMTQSHKFMSTSVGDRVSITCKASQDVSTDIAWYQQKPGQSPKLLIYSASYRFTGVPDRFTGSGSGTDFTFTISSVQAEDLAVYYCQHQYSTPWTFGGGTKLDIK
notes: Mouse monoclonal; Tested as hybridoma supernatant and as recombinant mIgG1
B3: anti-VISTA antibody 20E4 (antibody, IgG1, V domains shown)
VH: QVQLQQSGAELMKPGASVKISCKATGYTFSSSWVEWVRQRPGHGLEWIGEIFPGSGSTHYNEKFKGKATFTADTSSNTAYLQLSSLTSDDSAVYYCARRPPGWFFDVWGAGTTVTVSS
VL: B2 VL with I33V, F55Y, H90Q, Q91H, D105E
notes: as for B2
B4: anti-VISTA antibody 15D11 (antibody, V domains shown)
VH: EVQLQQSGSELVKAGASVKLSCTASGFKIKDTFIHWVKQRPEQGLDWIGRIDPANGNSKYDPKFQGKATITADTSSNTAYLQLSSLTSEDTAVYYCARWPSNWEAMDYWGQGTSVTVSS
VL: QIVLTQSPAIMSASPGEKVTMTCSASSSVSYMYWYQQKPGSSPRLLIYDTSNLASGVPFRFSGSGSGTSYSLTISRMEAEDAATYYCQQWISYPLTFGTGTKLELK
notes: Mouse monoclonal from hybridoma
B5: anti-VISTA antibody 16A1 (antibody, IgG1, V domains shown)
VH: B3 VH with V34I, R38K, T58L, H59N, Y60F
VL: B2 VL with S30T, I33V, F55Y, A84T, H90Q, Q91H, T94S, D105E
notes: as for B2

Molecular target: T1, mouse VISTA full length on Jurkat cells
Experiment: flow cytometry, hybridoma supernatant on Jurkat cells expressing mouse VISTA
Experimental: (§1) Human and mouse VISTA expressing Jurkat cells were cultured in RPMI1640 with 10% FBS. Cells were seeded into a 96 well plate at 1×10⁵ cells/well. Then the cells were incubated with anti-VISTA hybridoma supernatants for 30 minutes at 4° C. […] After washing with FACS buffer, the cells were incubated with Alexa Fluor 647 conjugated anti-mouse IgG(H+L)(1 μg/ml) (Jackson ImmunoResearch, Cat. #61505214) for 30 minutes at 4° C. After washing with FACS buffer twice, the samples were run in a NovoCyte Flow Cytometer (Agilent). Data was analyzed using the NovoExpress Software.

binding result	Binder
binds	B1
binds	B2
binds	B3

Molecular target: T2, His-tagged human VISTA extracellular …
Experiment: ELISA, hybridoma supernatant on coated human VISTA ECD (2 µg/ml)
Experimental: (§2) 50 μl of hybridoma supernatant was incubated with human VISTA ECD (2 μg/ml), mouse VISTA ECD (2 μg/mL), cynomolgus VISTA (2 μg/mL), or negative mouse IgG1 control coated on 96 well ELISA plates. Mouse anti-VISTA antibodies were detected by anti-mouse IgG-HRP (Jackson ImmunoResearch, Cat. # 615035214).

binding result	Binder
binds	B1
binds	B4
binds	B2
binds	B5
binds	B3

Molecular target: human VISTA extracellular transmembrane-CD3zeta chimera on Jurkat-nfkb-GFP reporter cells (human, UniProt P20963 52-164)
Experiment: cell-based or functional assay

percentage of activated Jurkat-NFKb-GFP/hVISTA-hCD3z cells in the presence of OKT3 (3 ng/ml)	Binder
> 60%	B1
≤ 60%	B4

Molecular target: T3, human VISTA full length on Jurkat cells
Experiment: flow cytometry, hybridoma supernatant on Jurkat cells expressing human VISTA
Experimental: as §1

binding result	Binder
binds	B1
binds	B2
binds	B5
binds	B3

Molecular target: T4, His-tagged mouse VISTA extracellular …
Experiment: ELISA, hybridoma supernatant on coated mouse VISTA ECD (2 µg/mL)
Experimental: as §2

binding result	Binder
binds	B1
binds	B4
binds	B2
binds	B3
